# What was measured:
# [1] = test system: Ku70/80 heterodimer (paper assigns Ku70 XRCC5, Ku80 XRCC6); assay: EMSA; settings: Invitrogen non-radioactive EMSA kit (SYBR), 25 min at 25 C (stated for nuclear extract), 2.2-2.5% agarose; buffer, salt and pH not given
# [2] = test system: Nucleolin; assay: EMSA; settings: Invitrogen non-radioactive EMSA kit (SYBR), 25 min at 25 C (stated for nuclear extract), 2.2-2.5% agarose; buffer, salt and pH not given
substance,measurement,setting,value
IFIH1 rs13023380 A allele PCR product,binding signal (fraction of G allele binding),[1],0.5
same,binding signal (fraction of G allele binding),[2],0.5
